{"source": "patent US20220119825A1", "about": "“SCALABLE PEPTIDE-GPCR INT[…] SYSTEMS” (THE TRUSTEES OF COLUMBIA UNIVERSITY IN THE CITY OF NEW YORK, priority 2019, published 2022)", "assay_in_all_cases": "cell-based or functional assay", "key": {"[1]": {"biological_target": "T1, Sc.Ste2, Saccharomyces cerevisiae mating GPCR Ste2 (Saccharomyces cerevisiae, UniProt D6VTK4 1-431)", "T1 sequence": "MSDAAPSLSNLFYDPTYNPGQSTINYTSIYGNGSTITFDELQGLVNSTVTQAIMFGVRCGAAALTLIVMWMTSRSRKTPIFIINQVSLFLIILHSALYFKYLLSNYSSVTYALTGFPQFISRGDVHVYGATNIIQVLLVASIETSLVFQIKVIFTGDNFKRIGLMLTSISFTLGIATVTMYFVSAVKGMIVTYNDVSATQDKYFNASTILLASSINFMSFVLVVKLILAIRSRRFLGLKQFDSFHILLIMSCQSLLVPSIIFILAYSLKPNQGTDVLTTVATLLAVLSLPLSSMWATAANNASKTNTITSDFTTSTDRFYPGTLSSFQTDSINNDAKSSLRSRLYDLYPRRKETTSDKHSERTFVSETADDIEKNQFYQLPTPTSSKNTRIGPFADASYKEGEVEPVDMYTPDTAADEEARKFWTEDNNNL"}, "[2]": {"biological_target": "T1, Sc.Ste2, Saccharomyces cerevisiae …", "remark": "listed apart in the source"}, "[3]": {"biological_target": "T2, Ct.Ste2, Ste2-like mating GPCR of Candida tropicalis (Candida tropicalis)", "T2 chain": "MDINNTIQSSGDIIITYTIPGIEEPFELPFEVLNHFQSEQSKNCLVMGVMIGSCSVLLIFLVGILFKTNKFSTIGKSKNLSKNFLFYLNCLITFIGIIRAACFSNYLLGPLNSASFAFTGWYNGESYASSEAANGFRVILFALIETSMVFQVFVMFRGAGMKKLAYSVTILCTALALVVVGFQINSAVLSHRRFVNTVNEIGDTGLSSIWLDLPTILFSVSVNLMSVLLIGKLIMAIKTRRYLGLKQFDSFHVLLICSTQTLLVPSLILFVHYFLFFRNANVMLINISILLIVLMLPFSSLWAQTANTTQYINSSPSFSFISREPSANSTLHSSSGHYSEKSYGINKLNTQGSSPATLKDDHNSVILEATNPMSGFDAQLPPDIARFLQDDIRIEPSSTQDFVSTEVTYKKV"}, "[4]": {"biological_target": "T3, Gc.Ste2, Ste2-like mating GPCR of Geotrichum candidum (Geotrichum candidum)", "T3 chain": "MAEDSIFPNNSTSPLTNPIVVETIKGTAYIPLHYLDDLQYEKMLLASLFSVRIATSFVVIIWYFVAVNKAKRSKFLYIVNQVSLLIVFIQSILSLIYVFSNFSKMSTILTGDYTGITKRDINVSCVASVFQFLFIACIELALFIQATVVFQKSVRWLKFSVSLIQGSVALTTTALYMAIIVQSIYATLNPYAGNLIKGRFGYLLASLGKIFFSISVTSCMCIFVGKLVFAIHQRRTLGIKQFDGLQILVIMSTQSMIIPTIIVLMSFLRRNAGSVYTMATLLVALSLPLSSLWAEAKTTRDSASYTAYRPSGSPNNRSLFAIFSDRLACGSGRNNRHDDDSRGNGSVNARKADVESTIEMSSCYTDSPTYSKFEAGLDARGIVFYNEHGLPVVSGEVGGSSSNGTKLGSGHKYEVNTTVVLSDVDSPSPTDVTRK"}, "[5]": {"biological_target": "T4, Kl.Ste2, Ste2-like mating GPCR of Kluyveromyces lactis (Kluyveromyces lactis)", "T4 chain": "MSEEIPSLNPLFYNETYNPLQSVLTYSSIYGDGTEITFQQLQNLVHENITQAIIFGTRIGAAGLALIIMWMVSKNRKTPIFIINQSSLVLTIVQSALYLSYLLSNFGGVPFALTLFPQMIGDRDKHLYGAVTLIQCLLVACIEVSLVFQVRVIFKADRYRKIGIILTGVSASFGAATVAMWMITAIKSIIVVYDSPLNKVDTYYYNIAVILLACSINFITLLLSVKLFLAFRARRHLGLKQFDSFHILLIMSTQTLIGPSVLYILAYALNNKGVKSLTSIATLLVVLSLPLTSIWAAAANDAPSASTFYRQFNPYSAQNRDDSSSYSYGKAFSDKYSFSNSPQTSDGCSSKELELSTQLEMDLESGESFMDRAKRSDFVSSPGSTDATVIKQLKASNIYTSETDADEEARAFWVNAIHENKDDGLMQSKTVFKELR"}, "[6]": {"biological_target": "T5, Kp.Ste2, Ste2-like mating GPCR of Komagataella (Pichia) pastoris (Komagataella (Pichia) pastoris)", "T5 chain": "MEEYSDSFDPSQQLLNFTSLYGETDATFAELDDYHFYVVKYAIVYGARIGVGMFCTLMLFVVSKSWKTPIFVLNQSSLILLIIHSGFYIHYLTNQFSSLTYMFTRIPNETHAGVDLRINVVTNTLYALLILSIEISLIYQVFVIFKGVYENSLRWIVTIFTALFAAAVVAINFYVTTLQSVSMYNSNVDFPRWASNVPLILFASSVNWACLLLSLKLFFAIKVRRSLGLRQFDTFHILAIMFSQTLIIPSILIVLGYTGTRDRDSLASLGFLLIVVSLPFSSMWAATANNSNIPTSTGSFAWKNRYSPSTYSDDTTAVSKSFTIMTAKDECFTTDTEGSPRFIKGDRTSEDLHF"}}, "note": "Several values for one entry are separate records, joined by “and”; a condition that tells them apart may be missing. Equal entries are not always repeated. Where two headings read alike, the source gives them in different places."}
{"binder": "WHWLQLKPGQPMY", "note": "[Sc peptide ligand #1 WHWLQLKPGQPMY (S. cerevisiae alpha-factor)]", "values": [{"measurement": "Bttm (FUS1p-RFP reporter)", "setting": "[1]", "value": "36.2 fluorescence/A600 (not printed)"}, {"measurement": "EC50 (FUS1p-RFP reporter)", "setting": "[1]", "value": "-8.9 log10 M (not printed)"}, {"measurement": "Fold Change (FUS1p-RFP reporter)", "setting": "[1]", "value": 7, "unit": "fold"}, {"measurement": "Span (FUS1p-RFP reporter)", "setting": "[1]", "value": "217 fluorescence/A600 (not printed)"}, {"measurement": "Top (FUS1p-RFP reporter)", "setting": "[1]", "value": "253 fluorescence/A600 (not printed)"}, {"measurement": "EC50 (FUS1p-RFP reporter)", "setting": "[2]", "value": "1.25 nM and ~1 nM"}]}
{"binder": "KFKFRLTRYGWFSPN", "note": "[Ct peptide ligand #1 KFKFRLTRYGWFSPN]", "values": [{"measurement": "Bttm (FUS1p-RFP reporter)", "setting": "[3]", "value": "32 fluorescence/A600 (not printed)"}, {"measurement": "EC50 (FUS1p-RFP reporter)", "setting": "[3]", "value": "-8.2 log10 M (not printed)"}, {"measurement": "Fold Change (FUS1p-RFP reporter)", "setting": "[3]", "value": 5.2, "unit": "fold"}, {"measurement": "Span (FUS1p-RFP reporter)", "setting": "[3]", "value": "135 fluorescence/A600 (not printed)"}, {"measurement": "Top (FUS1p-RFP reporter)", "setting": "[3]", "value": "167 fluorescence/A600 (not printed)"}]}
{"binder": "GDWGWFWYVPRPGDPAM", "note": "[Gc peptide ligand #1 GDWGWFWYVPRPGDPAM]", "values": [{"measurement": "Bttm (FUS1p-RFP reporter)", "setting": "[4]", "value": "22.9 fluorescence/A600 (not printed)"}, {"measurement": "EC50 (FUS1p-RFP reporter)", "setting": "[4]", "value": "-6.9 log10 M (not printed)"}, {"measurement": "Fold Change (FUS1p-RFP reporter)", "setting": "[4]", "value": 8.2, "unit": "fold"}, {"measurement": "Span (FUS1p-RFP reporter)", "setting": "[4]", "value": "164 fluorescence/A600 (not printed)"}, {"measurement": "Top (FUS1p-RFP reporter)", "setting": "[4]", "value": "187 fluorescence/A600 (not printed)"}]}
{"binder": "WSWITLRPGQPIF", "note": "[Kl peptide ligand #1 WSWITLRPGQPIF]", "values": [{"measurement": "Bttm (FUS1p-RFP reporter)", "setting": "[5]", "value": "37.2 fluorescence/A600 (not printed)"}, {"measurement": "EC50 (FUS1p-RFP reporter)", "setting": "[5]", "value": "-7.3 log10 M (not printed)"}, {"measurement": "Fold Change (FUS1p-RFP reporter)", "setting": "[5]", "value": 6, "unit": "fold"}, {"measurement": "Span (FUS1p-RFP reporter)", "setting": "[5]", "value": "186 fluorescence/A600 (not printed)"}, {"measurement": "Top (FUS1p-RFP reporter)", "setting": "[5]", "value": "223 fluorescence/A600 (not printed)"}]}
{"binder": "FRWRNNEKNQPFG", "note": "[Kp peptide ligand #1 (Table 3: …)]", "values": [{"measurement": "Bttm (FUS1p-RFP reporter)", "setting": "[6]", "value": "44.8 fluorescence/A600 (not printed)"}, {"measurement": "EC50 (FUS1p-RFP reporter)", "setting": "[6]", "value": "-8.2 log10 M (not printed)"}, {"measurement": "Fold Change (FUS1p-RFP reporter)", "setting": "[6]", "value": 6, "unit": "fold"}, {"measurement": "Span (FUS1p-RFP reporter)", "setting": "[6]", "value": "224 fluorescence/A600 (not printed)"}, {"measurement": "Top (FUS1p-RFP reporter)", "setting": "[6]", "value": "269 fluorescence/A600 (not printed)"}]}
